In patent publication US20090011497 (published 2009):

Molecular target: T1, hu-MPL (human, UniProt P40238)
T1 chain: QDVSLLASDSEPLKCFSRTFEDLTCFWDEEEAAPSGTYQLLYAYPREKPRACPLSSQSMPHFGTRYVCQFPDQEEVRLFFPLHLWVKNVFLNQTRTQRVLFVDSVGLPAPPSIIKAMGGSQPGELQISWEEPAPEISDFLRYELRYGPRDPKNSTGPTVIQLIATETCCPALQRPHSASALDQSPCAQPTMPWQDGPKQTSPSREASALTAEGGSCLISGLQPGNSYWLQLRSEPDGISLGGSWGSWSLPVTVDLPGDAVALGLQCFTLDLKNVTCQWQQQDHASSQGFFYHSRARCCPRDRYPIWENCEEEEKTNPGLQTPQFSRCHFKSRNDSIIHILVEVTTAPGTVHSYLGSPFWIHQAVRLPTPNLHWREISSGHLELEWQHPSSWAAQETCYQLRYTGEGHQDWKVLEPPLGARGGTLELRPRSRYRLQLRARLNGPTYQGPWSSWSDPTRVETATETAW
Assay: SPR

- Kd: 0.56 nM
Binder: YCDEGPTLKQWLVCLGLQ [TMP20]
